From the supplement of paper PMC10567573
± gives the standard deviation.

Experiment: protein stability index of a GFP-peptide fusion (GPS, HEK-293T) (PSI 1-6); higher = more stable
[1] = treatment: DMSO, c terminus: a fixed tail appended
[2] = treatment: MLN4924 1 uM, 8 h, c terminus: a fixed tail appended
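Also: 24-mer peptide tiles fused after GFP, lentivirally expressed, FACS-sorted into six equal bins by GFP/DsRed ratio, decoded by Illumina sequencing, PSI is the read-weighted mean bin number.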

Sequence | protein stability index [1] | protein stability index [2] | protein stability index (treatment: DMSO, c terminus: native) | protein stability index (treatment: MLN4924 1 uM, 8 h, c terminus: native)
AVLGFPGFSSGRHRWQVDLQLGDG [TRIM15] | 2.18 ± 0.069 | 2.22 ± 0.17 | – | –
LGGIGFSSCIVCLFVGLYYNVIIG [SLC6A17] | – | 3.92 ± 0.088 | – | –
YLPSTEFSVSSTSRRIYRCRNCIN [IQUB] | 2.62 ± 0.31 | 3.61 ± 0.38 | – | –
PNIVVAIAGNKCDLIDVREVMERD [RAB22A] | 3.68 ± 0.14 | 3.68 ± 0.25 | – | –
EPGPRPALQPSPSIRLPLDAPLPG [TBC1D10A] | 4.97 ± 0.28 | 5.06 ± 0.26 | – | –
DDSGKDKKKKTKKIKEKYIDQEEL [HSP90AB1] | 5.39 ± 0.29 | 5.37 ± 0.32 | – | –
QQKLVIDTVTEVTARMEMLIEELY [CBY2] | 2.55 ± 0.26 | 2.7 ± 0.42 | – | –
RRASICCTQLGSLSALKHAVLGLY [SCARA5] | 2.44 ± 0.38 | 2.07 ± 0.28 | – | –
FEAYAKICDPGLTSFEPEALGNLV [CAMK2B] | 2.71 ± 0.37 | 2.76 ± 0.32 | – | –
WSSRSPQERSRVLNQVADLLEQSL [ALDH8A1] | 2.8 ± 0.12 | 3.08 ± 0.54 | – | –
QVKKTTTRWCHIVRDSDSLAESEF [PHTF1] | 3.44 ± 0.36 | 3.67 ± 0.25 | – | –
KPPQNPVDTYDVQVTAPGAPPLQA [TNXB] | 4.84 ± 0.35 | 4.46 ± 0.3 | – | –
TCLMMDMKACQEDDVRLLCHLTPS [INTS3] | 2.69 ± 0.17 | 2.73 ± 0.33 | – | –
DEAELDYLMDVLVGTQALERPPGP [SERTAD1] | 3.74 ± 0.35 | 3.87 ± 0.33 | – | –
WQLFGPFGAVTNVKVIRDFTTNKC [ELAVL3] | 2.36 ± 0.37 | 2.2 ± 0.26 | – | –
RTTKPMAQRSAHCSRPSGSSSSSG [CSNK1G1] | 4.39 ± 0.18 | 4.43 ± 0.2 | – | –
VDNISTLDSEIKKNSDGMEAAGVQ [CD207] | 5.4 ± 0.37 | 5.49 ± 0.23 | – | –
VILSEIKEAVAALPPDVTTQSVMG [TCF25] | 2.77 ± 0.43 | 2.65 ± 0.2 | – | –
HSDMAAIVKAMASPESGLEVRDRM [DVL3] | 3.81 ± 0.23 | 3.81 ± 0.03 | – | –
GGSSTSERCLLNNSLWKKNKTICK [NLN] | 3.44 ± 0.16 | 3.47 ± 0.33 | – | –
PAQPGADSSFPPALAEGYRYPELD [TBX6] | 5.14 ± 0.18 | 5.01 ± 0.36 | – | –
LEPEAAEEALENGPKESLPVIAAP [ACBD3] | 5.67 ± 0.25 | 5.64 ± 0.24 | – | –
EEKSKQFLDLMETIDKQREEMAKS [LRRC45] | 5.28 ± 0.25 | 5.3 ± 0.16 | – | –

Sequence | protein stability index [1] | protein stability index [2] | protein stability index (treatment: DMSO, c terminus: native) | protein stability index (treatment: MLN4924 1 uM, 8 h, c terminus: native)
DGSKSEDELDQASTPTDVRDIDL [CCND2] | – | – | 4.41 ± 0.26 | 4.71 ± 0.33
SSESSSDSDNSGGGGGGGGGGGGG [ANKRD17] | 5.59 ± 0.27 | 5.7 ± 0.12 | – | –
SDNSGQVSPPESPTVTTSWQSESL [BCL2L13] | 5.13 ± 0.2 | 5.02 ± 0.23 | – | –
LPERRGTCADRDNLTRRFSDLGFE [CASP6] | 3.16 ± 0.21 | 3.09 ± 0.086 | – | –
ADMLKQYFRDLPEPLMTNKLSETF [DLC1] | 2.71 ± 0.26 | 2.86 ± 0.22 | – | –
PRNSDMKNQGEENGFPDSTGDPLP [EDARADD] | 5.53 ± 0.26 | 5.36 ± 0.13 | – | –
KRYDGLKYDVKKVEEVVYDLSIRG [TSN] | 3.33 ± 0.27 | 3.29 ± 0.094 | – | –
QKILCSKSENARLVVQIDNAKLAA [KRT33B] | 3.21 ± 0.27 | 3.33 ± 0.26 | – | –
SNKYGFGYQLSDHTVGVLFNNGAH [PLK2] | 2.61 ± 0.41 | 2.58 ± 0.5 | – | –
NQLSQAELDELASKAPVLTYGQPK [EFHC1] | 4.78 ± 0.11 | 4.79 ± 0.072 | – | –
PAATWNLEEKRLTWRLPDVSEAGG [FCHO1] | 4.49 ± 0.24 | 4.58 ± 0.25 | – | –
HYFPVMKKCCIPETRRRMEMAFNT [NLN] | 2.35 ± 0.43 | 1.84 ± 0.27 | – | –
VCESMKEQLLVLVEWAKYIPAFCE [HNF4A] | 2.51 ± 0.38 | 2.34 ± 0.38 | – | –
IRLVCSRGNRLKTTSWGLLSLGAL [SCNN1D] | 3.2 ± 0.45 | 3.07 ± 0.54 | – | –
NKDGIGEICLWGRHIFMGYLESET [ACSBG2] | 2.29 ± 0.46 | 2.02 ± 0.31 | – | –
VLEAKMTMLTVIEQPVPPTPATPE [EMID1] | 3.72 ± 0.38 | 3.89 ± 0.24 | – | –
RSRLRPRDDLDRLGVFLDYEAGVL [TRIM14] | 2.47 ± 0.4 | 2.59 ± 0.48 | – | –
TDRGNDNWLIKYDCPMDSSSSRDT [PI4K2A] | 4.44 ± 0.2 | 4.42 ± 0.075 | – | –
VVKQFVTGIIDSLTISPKAARVGL [MATN2] | 2.15 ± 0.34 | 3.15 ± 1.4 | – | –
EGHSPGNLPKFCHECGTKYPVEWA [ZC2HC1A] | 2.91 ± 0.25 | 2.97 ± 0.28 | – | –
TTIEDEDAKARKQEIIKTTEQLIE [CAMK2B] | 5.14 ± 0.22 | 5.32 ± 0.24 | – | –
PSTVGAEAQEEFLRVLGSMCQRLR [DFFB] | 2.28 ± 0.34 | 2.2 ± 0.32 | – | –
